The data set concerns the molecule itself. The data set can be described thus: native MS.

B1: whole intracellular region of rat PTPRZ (rat PTPRZ-ICR) (domain or fragment)
chain: not shown
Take B1: the Kd was ~7 µM and the “stoichiometry N” value came to 2.
